{"source": "the nanobody polyreactivity screen of Harvey et al. (2022)"}
{"test": "yeast display, Sf9 membrane polyspecificity reagent, FACS + sequencing; frameworks hold sequencing errors", "outline": "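A synthetic nanobody library was expressed on Saccharomyces cerevisiae BJ5465 by galactose induction for 36–48 hours. The library was stained for 1 hour at 4 °C with 10% biotinylated, detergent-solubilized Sf9 membrane reagent and enriched with streptavidin microbeads before FACS. Low and high (top ~1%) gates were set on anti-HA fluorescence for expression and streptavidin fluorescence for reagent binding, and each polyreactivity label reflects the gate of origin.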"}
{"sequence": "QVQLVESGGGLVQAGGSLRLSCAASGITFTYYAMGWYRQAPGKERELVAAINWNGGSTYYADSVKGRFTISRDNAKNTVYLQMNSLKPEDTAVYYCAAEFYIYGFVKFDYWGQGTQVTVSS", "polyreactivity (PSR sort gate)": "high polyreactivity"}
{"sequence": "QVQLVESGGGLVQEGGSLRLSCAASGRIIERSAMGWYRQAPGKERELVAGISISGGGTYYADSVKGRFTISRDKAKNTVYLLMNCLKPEDTSVYYCAGTFPREEYGYWGQGTQVTVSW", "polyreactivity (PSR sort gate)": "low polyreactivity"}
{"sequence": "QVQLVESGGGLVQAGGSLRLSCAASGRIFKGYAMGWYRKAPGKERELVAAITISGGSTYYADSVKGRFTISRDNAKNTVYLQMNSLIPEDTAVFYFAARKFVYWYGMEYWGQGTQVTVSS", "polyreactivity (PSR sort gate)": "low polyreactivity"}
{"sequence": "QVQLVESGGGLVQAGGSLRLSCAASGFTFIKNAMGWYRPAPGKERELVAAINSGGRTYYADSVKGRFTISRDNAKNTVYFQMNSLIPEDTAVYYCAARYTRDYYWGQGTQVTVSS", "polyreactivity (PSR sort gate)": "high polyreactivity"}
{"sequence": "QVHLVESGGGLLQAGGSLRLSSAASGSTFPFNAMGWYRPAPGKERELVAAIDDNGGTTYYADSVKGRFTISRDNAKNTFYLQMISLKPEDPAVYYCAAEVDTVRDCVQGMDYCGQGTQVTVSS", "polyreactivity (PSR sort gate)": "low polyreactivity"}
{"sequence": "QVQLVESGGGLVQAGGSLRLSCAASGRTFWLYAMGWYRQAPGKARELVASITRDGTSTYYADSVKGRFTISRDNPKNTVYLQMNSLKPEDTAVYYCAAVYHSKSRTIYWGQGTQVTVSS", "polyreactivity (PSR sort gate)": "high polyreactivity"}
{"sequence": "QVQLQESGGGLVQAGGSLRLSCAASGTIFYKDDMGWYRQAPGKEREFVAGIDRGGTTNCAGSVKGRFTISRDNAKNTVYLQMISLKPEDTAVYYCAAYYPDIYPFIYRGQGTQVTVSS", "polyreactivity (PSR sort gate)": "high polyreactivity"}
{"sequence": "QVQLVESGGGLVQAGGSLRFSCAASGSTFYAYAMGWYRQAAGQERELVAAIDSGGSTYYADSVKGRFTISRDNAKNTLYLQKNSLNPEDTAVYYCAVRHRYTRAYWGRDYWGQGTQVTVSS", "polyreactivity (PSR sort gate)": "low polyreactivity"}
{"sequence": "QVQLVESGGGLVQAGGSLRLSCAASGSTFRIYAKGWYRQAPGKERELVAAITRGARTNYADSVKGRFTISRDNAKNTVYLQMNSLKPEDTAVYYCAADGWRWYQHNGFDYWVQGTQVTVSS", "polyreactivity (PSR sort gate)": "high polyreactivity"}
{"sequence": "QVQLVESGGGLVQAGGSLRLSCAASGSTFLPYALGWYRQAPGKERELVAAIDWNGGRTYYADSVKGRFTISRDNAKNTVYLQMNSLKPEDTAVYYCAKLGRAAQGNYYWGQGTQVTVSS", "polyreactivity (PSR sort gate)": "high polyreactivity"}
{"sequence": "QVQLVESGGGLVQAGGSLRLSCAASGRTFNYSAMGWYRQAPGTERELVAAISSSGGRTYYADSVKGRFTISRDNAKITVYLQMNSLKPEDTAVYYCAADSFYYRPEYDYWGQGTQVTVSS", "polyreactivity (PSR sort gate)": "low polyreactivity"}
{"sequence": "QVQLVESGGGLVQARGSLRLICAASVQIFRVYAMGWSRQAPGKEREFVAAMTYDGGNTYYADSVKGRFTISRDNAKNTVYLQMLSLKPEDTAVYYCAKDYGEWGQGTQVTVSS", "polyreactivity (PSR sort gate)": "low polyreactivity"}
{"sequence": "QVQLVESGGGLVQAGGSLRLSCAASGSTFGGYAMGWYRQAPGKEREFVAAITKRGGRTYYADSVKGRFTISRDNAKNTVYLQMNSLKPEDTAVYYCATRGINYAEYDYWGQGTQVTVSS", "polyreactivity (PSR sort gate)": "high polyreactivity"}
{"sequence": "QVQLVESGGGFVQAGGSLRLSCAASGSIFAYYVMGWYRPAPGTERELGAAITSVGSTNYADSVKGRFTISRDNAKNTVYLQMNSLKPQDTAVYYCADDQYQARYYYWGQGTQVTVSS", "polyreactivity (PSR sort gate)": "low polyreactivity"}
{"sequence": "QVQLVESGGGLVQAGGSLRLSCAASGSNFDDNAMGWYRQAPGKERELVAAITRSGGSTYYADSVKGRFTISRDNAKNTVYLQMISLKPEDTAVYYCAAAAYHSYGPGKRFYYWGQGSQVTVSS", "polyreactivity (PSR sort gate)": "high polyreactivity"}
{"sequence": "QVQLVDSGGGLVQEGGSLRISCAASGFTFPRNAMGWYIQAPGKERELVAAINSGGGTNYADSVKGRFTISRDNAKNTVYLQMNSLKPEDTAVYYCAKDHGSFEMDYWGLGTQVTVSS", "polyreactivity (PSR sort gate)": "low polyreactivity"}
{"sequence": "QGQLVESGGGFVQAGGSLRLSCAASGSTFRYYTMGWYRQAPGKEREFVAAITSSGTSTYYADSVKGRFTISRDIAKNTVYLQMNSLKPEDTAVYYCNKVGIYGSRSRYDSWGQGTQVTVSS", "polyreactivity (PSR sort gate)": "high polyreactivity"}
{"sequence": "QVQLVESGGGLVQAGGSLRLSCAASGSIFRDNAMGWYLQAPGKERELVASISRRGGSTYYADSVKGRFTISRDNAKNTVYLQMNSLKPEDTAVYYCAARAVGGTVPTRYDYWGQGTQVTVSS", "polyreactivity (PSR sort gate)": "high polyreactivity"}
{"sequence": "QDQLVESGGGLVQAGGSLRLSCAASGRIFGFNAMGWYRQAPGKERELVAAISWRGGSTRYADSVKGRFTISRDNAKNTVYLQMNSLKPEDTAVYYCATPYADPGTVQYAGYNYWGQGTQVTVSS", "polyreactivity (PSR sort gate)": "high polyreactivity"}
{"sequence": "QVQLVESGGGLVQAGGSLRLSCAASGIIFLTNAMGWSRPAPAKERELVAAITAIGGSTYYADSVKGRFTISRDNAKNTVYLQMNSLKPEDTAVYYCAADFSYVYYLYDYWGQGTQVTVSS", "polyreactivity (PSR sort gate)": "low polyreactivity"}
{"sequence": "QVQLVESGGGLVQAGGSLRLSCAASGRTFRYYAMGWYRQAPGKEREWDAAISRGDSTHYADSVKGRFTISRDNAKNSVYLQMNSLKPEDTEVYYCAAYRGRSVDRQPYYWGQGTQVTVSS", "polyreactivity (PSR sort gate)": "high polyreactivity"}
{"sequence": "QVQLVESGGGLVQAGGSLRLSCAASGFIFFVNAMGWYRQAPGKEREFVATITGSGGSTYYADSVKGRFTISRDNAKNTVYLQMNSLKPEDTAVYYCAALGPYLDYGVQYGYWGQGTQVTVSS", "polyreactivity (PSR sort gate)": "low polyreactivity"}
{"sequence": "QVQLVESGGGLVQAGGSLRLSCAASGSIFRLNTMGWYRQAPGKEMEFVAAISKGGTSTYYADSVKARFTISRDNAKNTVYLQMNSLKPEDTAVYYCAADYYSLYEATTDFDYWGQGTQVTVSS", "polyreactivity (PSR sort gate)": "high polyreactivity"}
{"sequence": "QVQLVESGGGLVQAGGSLRLSCASSGITFPGNAMGWYRQAPGKERELVAGISDGDSTNYADSVKGRFTISRDNAKNTVYLQMNSLKPEVTAVYYCNAQGTTETSGGGFFRGMDYWGQGTQVTVSS", "polyreactivity (PSR sort gate)": "low polyreactivity"}
{"sequence": "QVQLVESGGGLVQAGGSLRLSCAASGSTFFRNAMGWYRQAPGKERELVASITSGGNTKYADSVKGRFTISRDNAKNTVYLQMNSLKPEDTAVYYCAAKFYHFASYSRLYNYWGQGTQVTVSS", "polyreactivity (PSR sort gate)": "low polyreactivity"}
{"sequence": "QVQLVESGGGLVQAGGSLRLSCAASGFIFSSNAMGGYRQAPGTERELVATIDRDGGITYADSVKGRFTISRDNAKTTVYIQMNSLKPEDTEVYYCAADPSSYGRFTYDYWGQGTQVTVSS", "polyreactivity (PSR sort gate)": "low polyreactivity"}
{"sequence": "QVQLVESGGGLVQAGGSLRLSCAASGSIFYHNAMGWYRQAPGKERELVATISWRSASTYYADSVKGRFRISRDNAKNTVYLQMNSLKPEDTAVYYCAAKLQYRQYYYRYGYDYWGQGTQVTVSS", "polyreactivity (PSR sort gate)": "high polyreactivity"}
{"sequence": "QVQLVESGGGLVQAGGSLRLSCAASGSIFTRYVMGWYRQAPGKERELVAAISGRGSSTYYADSVKGRFTISRDNAKNTVYLQMNSLKPEDTAVYYCAAEIVVFYSEGQRNTFYYWGQGTQVTVSS", "polyreactivity (PSR sort gate)": "high polyreactivity"}
{"sequence": "QVQLEESGGGLVQAGGSLRLSCAASGRIFRYTLGWYRQAPGKERELVATINSGGRTYDADSVKGRFTISRDNAKNTVYLQMNSLKPEDTAVYYCAATYQTKSNKYVHGSPIENDYWGQGTQVTGSS", "polyreactivity (PSR sort gate)": "low polyreactivity"}
{"sequence": "QVQLVESGGGLVQAGGSLRLSCAASGSTFAYYAMGWYRQAPGKERELVAAITSSGGSTYYADSVKGRFTISRDNAKNTVYLQMNSLKPEDTAVYYCNARYRRKSWRPFDYWGQGTQVTVSS", "polyreactivity (PSR sort gate)": "high polyreactivity"}
{"sequence": "QVQLVESGGGLVQAGGSLRLSCAASGSIFEYYAMGWYRQAPGKERELVASITSSGTTYYADSVKGRFTISRDNAKNTVYLQMNSLKPEDTAVYYCAAYFAYLDSYVTYEYDYWGQGTQVTVSS", "polyreactivity (PSR sort gate)": "low polyreactivity"}
{"sequence": "QVQLVESVGGLVQAGGSLRLSCAASGSTFDKYAMGWYRQAPGKERELVATISQSGASTYYADSVKGRFTISRDNAKNTVYLQMNSLKPEDTAVYYCAARSSTRVWYWGRYYYWGQGTQVTVSS", "polyreactivity (PSR sort gate)": "high polyreactivity"}
{"sequence": "HVQLVESGGGIVQAGGSLRLSCAASGSTYVTNDMGSYRQAPGKERELVAAIYSGTSTNYADSVKGRFTISRDNAKNTVYLQMNSLKPEDTAVYYCAADSLKRYDYWGQGTQVSVSS", "polyreactivity (PSR sort gate)": "low polyreactivity"}
{"sequence": "QVQLVESGGGLVQAGGSLRLSCAASGIIFSSYAMGWYRQAPGKERELVAAITSGGSTNYADSVKGRFTISRDNAKNTVYLQMNSLKPEDTAVYYCATVHAKPYYYWGQGTQVTVSS", "polyreactivity (PSR sort gate)": "low polyreactivity"}
{"sequence": "QDQLVESGGGLVQAGGSLRLSCASSGFTIVYYAMGWYRQAPGKERELVADISSYGSTYADSVKGRFTISRDNAKNTVYLLMNSLKPEDTAVYYCAAEYIYQPHYGYYYWGQGTQVTVSS", "polyreactivity (PSR sort gate)": "high polyreactivity"}
{"sequence": "QVQLVESGGGLVQAGGSLRLSCAASGRIFYPYAMGWYRQAPGKERELVAAITSDGGSTYYADSVKGRFTISRDNAKNTVYLQMNSLKPEDTAVYYCAAYEAYKANVGGGYYYWGQGTQVTVSS", "polyreactivity (PSR sort gate)": "low polyreactivity"}
{"sequence": "QVQLVDSGGGLVQAVGSLRLSCAASGRTFYANAMGWYRQAPGKERELVAAISSRSGTTHYADSVKGRFTISRDNAKNTVYLQMNSLKPEDTAVYYCNRQKWRLLTMGAHNRQAYDSWGQGTQVSVSS", "polyreactivity (PSR sort gate)": "low polyreactivity"}
{"sequence": "QVQLQESGGGLVQAGGSLRQSCAASGNIFLGDTMGWYRPAPGKEREFVAGIARGGNPYYADSVKGRFTISRNNAKNTVYLQKNSLKPEDTAVHYCAVQRSHASDYNYWGQGTQVTVSS", "polyreactivity (PSR sort gate)": "low polyreactivity"}
{"sequence": "QVQLVESGGGLVQAGGSLPLSCAASGFISWGNAMGWSRQAPGKARELVAAISWRDARTYYADSVKGRFTISRDNAKNTVYLQMNSLKPEATAVYYCNAVTAYVSRNLGGYRWFDYWGQGTQVTVSA", "polyreactivity (PSR sort gate)": "low polyreactivity"}
{"sequence": "QVQLVESGGGLVQAGGSLRLSCAASGFIIRGNVMGWSRQAPGKERELVAAISGRGGSTYYADSVKGRFTISRDNAKNTVYLQRNILKPEDTGVYYCNAAGLYNSRLDYWGQGTQVTVSS", "polyreactivity (PSR sort gate)": "high polyreactivity"}
{"sequence": "QVQLVESGGGLVQAGGSLRLSCAASGSIFTNAMGWYRQAPGKETELVAAISYSGGSTYYADSVKGRFTISRDNAKNTVYLQMNSLKREDTAVYYCAAEAWFDGIWGDYWGQGTQVTVSS", "polyreactivity (PSR sort gate)": "high polyreactivity"}
{"sequence": "QVQLVESGGGLVQAGGSLRLSCASSGRSLSVYAMGRYRQAPGKERDLVADITWRGGSTYYADSVKGRFTISRDNAKNTVYLQMNSLKPEDTAVYYCAAADSTWFDWGNYWYYYWGQGTQVSVSS", "polyreactivity (PSR sort gate)": "low polyreactivity"}
{"sequence": "QVQLVESGGCLVQAGGSLRLSCAASGSIFIWYAMGWYRQAPGKERELVASITYSAGRTYYADSVKGRFTISRDNAKNTVYLQMNSLKPEDTAVYYCAADSPYVYTLDSYGEGDYWGQGTQVTVSS", "polyreactivity (PSR sort gate)": "low polyreactivity"}
